Kd data for ten sequences are collected here from US5668265.

The data set addresses alpha-thrombin (Homo sapiens) (UniProt P00734+P00734). The data set is described as follows: SPR. Particulars: apparent.
Setting [1] is: DNA segments joined 3'-3' through glycerol phosphodiester linker L2 (both segments given 5'-3'), solution competition vs immobilized consensus …, same buffer, 25 C.
Setting [2] is: DNA segments joined 3'-3' by a single phosphodiester (inverted polarity; second segment given 5'-3'), solution competition vs immobilized consensus aptamer, same buffer, 25 C.

pKd: −log10 of the molar value.

As to GGTTGGTTGGTTGGTT [Compound 6], the negative-log Kd (pKd) (DNA segments joined 3'-3' through hexaethylene glycol phosphodiester linker L1 (both segments given 5'-3'), solution competition vs immobilized consensus aptamer, same buffer, 25 C) is 8.00.

With TGGTTGGTGGTTGG [Compound 7], the pKd (DNA segments joined 5'-5' through hexaethylene glycol phosphodiester linker L1 (both segments given 5'-3'), solution competition vs immobilized consensus aptamer, same buffer, 25 C) was 7.64.

Regarding TTGGTTGGTTGGTTGG [Compound 4], the pKd (DNA segments joined 5'-5' by a single phosphodiester (inverted polarity; both segments given 5'-3'), solution competition vs immobilized consensus aptamer, same buffer, 25 C) is 7.60.

In the case of GGTTGGTTGGTTGGTT [Compound 9], the negative-log Kd (pKd) under setting [1] was 7.72.

As to GGTTGGTTGGGTTGGTT [Compound 3], the pKd under setting [2] is 7.96.

On to GGTTGGTGGGTTGGT [Compound 1], for which the pKd under setting [2] is 6.65.

As to “GGTTGGGGTTGG [Compound 11 (uni-directional)]”, the pKd (hexaethylene glycol phosphodiester linker L1 between 3' end of first and 5' end of second segment (normal polarity), solution competition vs immobilized consensus aptamer, same buffer, 25 C) was 7.54.

Take GGTTGGTGGTTGGT [Compound 5]: the negative logarithm of the Kd (pKd) (DNA segments joined 3'-3' through hexaethylene glycol phosphodiester linker L1 (both segments given 5'-3'), solution competition vs immobilized consensus aptamer, 80 nM thrombin, 20 mM Tris-acetate, 140 mM NaCl, 5 mM KCl, 1 mM CaCl2, 1 mM MgCl2, pH 7.4 …) was 8.05.

On to GGTTGGTGGTTGGT [Compound 8], for which the negative-log Kd (pKd) under setting [1] is 7.54.

Turning to GGTTGGTTGGTTGGTT [Compound 2], the negative-log Kd (pKd) under setting [2] was 6.51.
